This note sets out measurements from US9717715B2, “Method of combination therapy using an anti-C-Met antibody” (SAMSUNG ELECTRONICS CO., LTD., dated 2017).

A value given as a limit tells only on which side of the number the result lay.

In assay [1] the target is c-Met on human cancer cells (human, UniProt P08581). Put plainly: cell-based or functional assay.
Assay [2] addresses T1, human c-Met protein (human, UniProt P08581). Nature of the assay: SPR (Biacore), antibody immobilised on CM5 chip, human c-Met protein injected at 0.39-100 nM. In general terms: In SPR one partner is held on a chip, and binding of the other changes the refractive index at the surface.
Assay [3] concerns the target T1, human c-Met protein. Nature of the assay: SPR (Biacore), by the method of Example 8.

B1: huAbF46-H4-A1 (U6-HC7) (antibody)
heavy: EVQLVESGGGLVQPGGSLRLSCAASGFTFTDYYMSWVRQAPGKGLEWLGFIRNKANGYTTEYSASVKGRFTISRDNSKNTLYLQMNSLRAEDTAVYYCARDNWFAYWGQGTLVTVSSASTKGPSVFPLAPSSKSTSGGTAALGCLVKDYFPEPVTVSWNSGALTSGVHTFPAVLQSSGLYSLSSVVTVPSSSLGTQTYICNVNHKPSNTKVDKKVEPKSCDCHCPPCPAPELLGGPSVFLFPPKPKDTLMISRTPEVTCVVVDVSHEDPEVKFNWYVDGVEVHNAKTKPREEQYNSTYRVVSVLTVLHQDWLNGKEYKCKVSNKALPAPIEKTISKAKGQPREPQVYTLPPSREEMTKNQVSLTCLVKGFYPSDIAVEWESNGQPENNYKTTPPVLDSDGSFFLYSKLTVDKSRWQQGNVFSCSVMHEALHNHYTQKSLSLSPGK
light: DIQMTQSPSSLSASVGDRVTITCKSSQSLLASGNQNNYLAWYQQKPGKAPKMLIIWASTRVSGVPSRFSGSGSGTDFTLTISSLQPEDFATYYCQQSYSRPYTFGQGTKVEIKRTVAAPSVFIFPPSDEQLKSGTASVVCLLNNFYPREAKVQWKVDNALQSGNSQESVTEQDSKDSTYSLSSTLTLSKADYEKHKVYACEVTHQGLSSPVTKSFNRGEC
With B1, in assay [1], the “Akt phosphorylation (%) in Caki-1 cells, 5 ug/ml, 30 min” value (shortened to “Akt phosphorylation (%) in Caki-1 cells”) is at most 18% and the “relative cell viability (%) of MKN45 cells, 72 h” value (shortened to “relative cell viability (%)”) was about 60%.

B2: huAbF46-H4-A1 (IgG2 hinge) (antibody)
heavy: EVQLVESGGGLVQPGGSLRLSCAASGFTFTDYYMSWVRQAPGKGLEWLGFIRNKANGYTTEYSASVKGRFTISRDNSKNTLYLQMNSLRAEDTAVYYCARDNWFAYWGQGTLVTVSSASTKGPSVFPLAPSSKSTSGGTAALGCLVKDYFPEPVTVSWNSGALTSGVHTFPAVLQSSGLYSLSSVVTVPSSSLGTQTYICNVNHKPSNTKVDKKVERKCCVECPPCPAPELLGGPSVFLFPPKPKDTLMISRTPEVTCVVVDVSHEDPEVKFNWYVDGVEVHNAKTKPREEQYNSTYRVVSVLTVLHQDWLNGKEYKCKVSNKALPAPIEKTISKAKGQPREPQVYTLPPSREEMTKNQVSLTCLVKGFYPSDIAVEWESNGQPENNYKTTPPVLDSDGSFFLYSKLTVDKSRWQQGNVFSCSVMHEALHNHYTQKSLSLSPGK
light: DIQMTQSPSSLSASVGDRVTITCKSSQSLLASGNQNNYLAWYQQKPGKAPKMLIIWASTRVSGVPSRFSGSGSGTDFTLTISSLQPEDFATYYCQQSYSRPYTFGQGTKVEIKRTVAAPSVFIFPPSDEQLKSGTASVVCLLNNFYPREAKVQWKVDNALQSGNSQESVTEQDSKDSTYSLSSTLTLSKADYEKHKVYACEVTHQGLSSPVTKSFNRGEC
For the molecule B2, in assay [1], the “Akt phosphorylation (%) in Caki-1 cells” value is at most 18% and the “relative cell viability (%)” value was about 60%.

B3: huAbF46-H4-A1 (IgG2 Fc) (antibody)
heavy: EVQLVESGGGLVQPGGSLRLSCAASGFTFTDYYMSWVRQAPGKGLEWLGFIRNKANGYTTEYSASVKGRFTISRDNSKNTLYLQMNSLRAEDTAVYYCARDNWFAYWGQGTLVTVSSASTKGPSVFPLAPCSRSTSESTAALGCLVKDYFPEPVTVSWNSGALTSGVHTFPAVLQSSGLYSLSSVVTVPSSNFGTQTYTCNVDHKPSNTKVDKTVERKCCVECPPCPAPPVAGPSVFLFPPKPKDTLMISRTPEVTCVVVDVSHEDPEVQFNWYVDGVEVHNAKTKPREEQFNSTFRVVSVLTVVHQDWLNGKEYKCKVSNKGLPAPIEKTISKTKGQPREPQVYTLPPSREEMTKNQVSLTCLVKGFYPSDIAVEWESNGQPENNYKTTPPMLDSDGSFFLYSKLTVDKSRWQQGNVFSCSVMHEALHNHYTQKSLSLSPGK
light: DIQMTQSPSSLSASVGDRVTITCKSSQSLLASGNQNNYLAWYQQKPGKAPKMLIIWASTRVSGVPSRFSGSGSGTDFTLTISSLQPEDFATYYCQQSYSRPYTFGQGTKVEIKRTVAAPSVFIFPPSDEQLKSGTASVVCLLNNFYPREAKVQWKVDNALQSGNSQESVTEQDSKDSTYSLSSTLTLSKADYEKHKVYACEVTHQGLSSPVTKSFNRGEC
In the case of B3, in assay [1], the “Akt phosphorylation (%) in Caki-1 cells” value is at most 18% and the “relative cell viability (%)” value was about 60%.

B4: humanized antibody huAbF46 (H4-heavy chain and H4-light chain) (antibody, V domains shown)
VH: EVQLVESGGGLVQPGGSLRLSCAASGFTFTDYYMSWVRQAPGKGLEWLGFIRNKANGYTTEYSASVKGRFTISRDNSKNTLYLQMNSLRAEDTAVYYCARDNWFAYWGQGTLVTVSS
VL: DIQMTQSPSSLSASVGDRVTITCKSSQSLLASGNQNNYLAWHQQKPGKAPKMLIIWASTRVSGVPSRFSGSGSGTDFTLTISSLQPEDFATYYCQQSYSAPLTFGQGTKVEIKR
B4: in assay [1], the “Akt phosphorylation (%) in Caki-1 cells” value is 29.1% and the “relative cell viability (%)” value amounted to 77%. In the assay with human c-Met protein [2], binding was put at a Kd of 2.19 nM; the koff – broadly, the first-order rate constant of dissociation – was 0.000723 s⁻¹; the on-rate (kon) – broadly, the rate constant with which the complex forms – came to 329000 M⁻¹ s⁻¹.

B5: L3-11Y (antibody, V domains shown)
VH: EVQLVESGGGLVQPGGSLRLSCAASGFTFTDYYMSWVRQAPGKGLEWLGFIRNKANGYTTEYSASVKGRFTISRDNSKNTLYLQMNSLRAEDTAVYYCARDNWFAYWGQGTLVTVSS
VL: DIQMTQSPSSLSASVGDRVTITCKSSQSLLAWGNQNNYLAWYQQKPGKAPKMLIIWASTRVSGVPSRFSGSGSGTDFTLTISSLQPEDFATYYCQQSYSRPYTFGQGTKVEIKR
Consider B5, for which the dissociation constant Kd (in general, the constant that tells how readily two partners part at equilibrium) in the assay with human c-Met protein [3] is under 0.01 nM.

B6: huAbF46-H4-A1 (antibody, V domains shown)
VH: EVQLVESGGGLVQPGGSLRLSCAASGFTFTDYYMSWVRQAPGKGLEWLGFIRNKANGYTTEYSASVKGRFTISRDNSKNTLYLQMNSLRAEDTAVYYCARDNWFAYWGQGTLVTVSS
VL: DIQMTQSPSSLSASVGDRVTITCKSSQSLLASGNQNNYLAWHQQKPGKAPKMLIIWASTRVSGVPSRFSGSGSGTDFTLTISSLQPEDFATYYCQQSYSRPYTFGQGTKVEIKR
Consider B6, for which, in assay [1], the “Akt phosphorylation (%) in Caki-1 cells” value is 15.3% and the “relative cell viability (%)” value turned out to be 74%. Besides, in the assay with human c-Met protein [2], the affinity, expressed as Kd, was 0.06 nM; the koff worked out at 4.53e-05 s⁻¹; the on-rate (kon) turned out to be 739000 M⁻¹ s⁻¹.
